Measured values published in article PMC3173086.

Molecular target: MppA (murein tripeptide-binding protein of E. coli), His tag cleaved (E. coli K-12) (UniProt P77348)
Experiment: other fluorescence titration

UniProt P77348, sequence (P77348 23-537, tags left off): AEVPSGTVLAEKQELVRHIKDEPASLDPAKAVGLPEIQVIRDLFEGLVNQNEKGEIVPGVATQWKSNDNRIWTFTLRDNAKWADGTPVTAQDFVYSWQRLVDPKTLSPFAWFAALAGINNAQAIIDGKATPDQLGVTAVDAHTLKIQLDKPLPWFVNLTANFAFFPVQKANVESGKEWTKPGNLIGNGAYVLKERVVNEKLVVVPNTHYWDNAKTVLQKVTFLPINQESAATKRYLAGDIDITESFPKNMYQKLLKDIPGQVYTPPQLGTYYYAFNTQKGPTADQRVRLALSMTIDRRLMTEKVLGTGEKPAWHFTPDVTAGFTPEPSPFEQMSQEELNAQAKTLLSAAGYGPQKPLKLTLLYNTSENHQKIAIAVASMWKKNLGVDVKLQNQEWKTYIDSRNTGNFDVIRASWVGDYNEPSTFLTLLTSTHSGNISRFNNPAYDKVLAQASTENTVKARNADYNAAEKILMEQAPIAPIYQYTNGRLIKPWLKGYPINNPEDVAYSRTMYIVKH

Kd: 130 µM
Substance: L-Ala-γ-D-Glu-L-Lys (peptide)
